According to the supplement of paper PMC10126150:
± gives the standard deviation of the averaged measurements.

tested on: ATP; test: switch fluorescence ratio, 500 uM ATP over buffer (Cy3 cluster intensity, sum of 5 cycles each) (fold (ratio)); higher = stronger signal-on switching upon ATP binding; sequences stand for … in TCGTCGGCAGCGTCAGATGTGTATAAGAGACAGTTTTTTTTTTTTTTTTTTTTTTTTT…TC; details: aptamer strand: ATP DNA aptamer (quencher-CACCTGGGGGAGTATTGCGGAGGAAGG + anchor), 100 nM annealed; ATP concentration: 500 uM
Outline: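 Values give the fluorescence ratio for each switch-domain sequence, averaged from per-cluster ratios of summed target-cycle to summed buffer-cycle Cy3 intensity. The Cy3-labelled switching-strand clusters sat on a modified Illumina MiSeq flow-cell, were annealed to 100 nM quencher-labelled ATP aptamer, and were imaged in selection buffer, then after 15 min with 500 uM ATP at 22 °C. Five cycles ran with NaOH stripping and re-annealing between them, and clusters outside 100-1000 RFU were excluded.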
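Also: ATP exposure 15 min at 22 °C before imaging.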

| Sequence | switch fluorescence ratio |
| --- | --- |
| GGGCGTATGT | 0.981 ± 0.023 |
| ATGGGGTAAC | 0.969 ± 0.011 |
| GGTCGGGGCG | 1.02 ± 0.071 |
| TTATTGACGA | 0.992 ± 0.021 |
| TCGGTGAGAG | 1.03 ± 0.019 |
| CTTCCGGAGG | 1.9 ± 0.048 |
| TGGTGTCTAT | 1.007 ± 0.0087 |
| CGGGGTGTTC | 0.9849 ± 0.0049 |
| TGATTTTGAG | 1.01 ± 0.018 |
| TGTTAATGTG | 1.004 ± 0.0038 |
| AGGTCTTGGG | 0.972 ± 0.027 |
| CAGGACGGGT | 1.02 ± 0.03 |
| TAGGGTAGGT | 0.974 ± 0.0049 |
| AATTCGACGA | 1.006 ± 0.0056 |
| AAAATTTAAT | 1.01 ± 0.016 |
| TGATGCCGCT | 1.07 ± 0.083 |
| GGCTTTTTGG | 0.99 ± 0.02 |
| AAGGAGCTAT | 1.05 ± 0.026 |
| TCAGATCTGT | 1 ± 0.024 |
| TTCAGTATCA | 1.06 ± 0.061 |
| ATGATGTGGG | 1.011 ± 0.0087 |
| CGGTTGCTTG | 0.996 ± 0.034 |
| ATTTTGAAGA | 1.01 ± 0.032 |
| CATGCGAGGG | 1 ± 0.035 |
| TGAGGGGGAT | 1 ± 0.051 |

| Sequence | switch fluorescence ratio |
| --- | --- |
| AGGGGTATTG | 0.993 ± 0.017 |
| ACGGGGGTTC | 1.01 ± 0.012 |
| TGGTGAGGCT | 0.9694 ± 0.0037 |
| GACTCGAGGG | 0.99 ± 0.083 |
| TTGTTTTTAG | 0.988 ± 0.04 |
| CTGACGTAAG | 1.26 ± 0.29 |
| TATCTTGCAT | 0.97 ± 0.048 |
| AAATGTTTAT | 0.9804 ± 0.0017 |
| AGGCGGACGT | 1 ± 0.0089 |
| AAATGCTAGC | 1.01 ± 0.039 |
| ATTCTTCTCA | 1.02 ± 0.028 |
| TTTTGGCCGT | 1.1 ± 0.15 |
| AACTCATTCA | 1.02 ± 0.025 |
| TTGAAAGGTG | 1.29 ± 0.24 |
| CTATGGATAC | 1.61 ± 0.18 |
| TTTACAGGAT | 0.993 ± 0.024 |
| TATGAGGGGT | 1.13 ± 0.047 |
| GTTGCAGCGC | 0.982 ± 0.013 |
| TAAGAGGGTC | 0.999 ± 0.041 |
| ACTAACTAAT | 1.06 ± 0.056 |
| GTAGTTAGGG | 1.02 ± 0.015 |
| GATGCGACCA | 1.04 ± 0.065 |
| ATGGGTTGAG | 1.01 ± 0.0072 |
| TTTATACGTT | 1.01 ± 0.044 |
| GATCGAGGCG | 0.9569 ± 0.0055 |

| Sequence | switch fluorescence ratio |
| --- | --- |
| GATAATTAGG | 1.01 ± 0.02 |
| TCAGTCAACC | 1.1 ± 0.017 |
| CCGCGTCTGT | 1.24 ± 0.032 |
| TGTGAGGCGC | 1 ± 0.044 |
| ATTATTAAGT | 0.987 ± 0.025 |
| GGGAGCTACA | 1.02 ± 0.017 |
| TCTAGACGTC | 0.9972 ± 0.0081 |
| GGGTGACAAC | 1.002 ± 0.0084 |
| AAAGGTTTAC | 0.978 ± 0.025 |
| GGGTGTGTGC | 1.03 ± 0.08 |
| AAGGTTGTTT | 0.983 ± 0.03 |
| TAGGGGGGCT | 0.968 ± 0.045 |
| TAAGGTAATA | 1.03 ± 0.051 |
| GGTATAGAGA | 0.986 ± 0.051 |
| CGATGGGGGC | 0.957 ± 0.068 |
| AAGCCAAGGT | 1.033 ± 0.0084 |
| CGTGGAGGTA | 0.985 ± 0.041 |
| GGTCTACTTG | 0.984 ± 0.057 |
| TTTGCTCGGG | 1.003 ± 0.002 |
| TTTCAGCT | 0.977 ± 0.013 |
| CTTTGCACGA | 1.1 ± 0.0077 |
| GAGGGAATTT | 1.01 ± 0.021 |
| TAGAATGGCC | 1.01 ± 0.041 |
| TGGTTGGTGT | 1.06 ± 0.015 |
| TTTACTGGCT | 1.02 ± 0.0011 |

| Sequence | switch fluorescence ratio |
| --- | --- |
| AGTAAGAGTC | 1.01 ± 0.017 |
| GTGGCCATGC | 1.01 ± 0.025 |
| TTTGGTTTGG | 1.01 ± 0.036 |
| TTTGTACCGT | 1.06 ± 0.1 |
| GATGGTATTT | 0.9794 ± 0.0062 |
| CGTTTACCGA | 0.942 ± 0.034 |
| GCGATTGAGG | 0.9891 ± 0.005 |
| TTCATGAATT | 0.9956 ± 0.0056 |
| CAGTGGACCG | 1.004 ± 0.0011 |
| ATTGACGGCA | 1.02 ± 0.032 |
| ATACTGAGTT | 1.05 ± 0.042 |
| AGGCCCGTGT | 0.98 ± 0.068 |
| ATCGCTGGTA | 1.02 ± 0.031 |
| CAAAACCTGA | 1.2 ± 0.15 |
| TTGATGACGG | 0.9872 ± 0.0016 |
| GTTTTGTGGG | 0.968 ± 0.034 |
| GGGTATGCGG | 0.978 ± 0.042 |
| GAAAAGCATG | 0.988 ± 0.043 |
| TAGATATGCG | 1.03 ± 0.015 |
| ATATTTATTG | 0.998 ± 0.04 |
| CAGAGAGTTT | 0.9851 ± 0.0044 |
| GCTATAGAGG | 0.9846 ± 0.0072 |
| ATAGAGGGGT | 1.01 ± 0.023 |
| TTTTAATGCA | 0.977 ± 0.018 |
| TTTCAATAGG | 1.01 ± 0.024 |
